Source: US20250346655 (published 2025)

B1: 12G1 (antibody, V domains shown)
VH: QIQLVQSGPELRKPGETVRISCKASGYTFTTAGMQWVQKMPGKGLKWIGWINTHSGVPKYAEDFKGRFAFSLETSASTAYLQISNLKNEDTATYFCARTSWAPYWGQGTLVTVSA
VL: not shown
B2: 12B12 (antibody, V domains shown)
VH: EVQLQQSGAELVKPGASVKLSCTASGFNIKDTYIHWVKQRPEQGLEWIGRIDPANGNTNYDPKFQDKATITADTSSNTAYLQFSSLTSEDTAVYYCSNWDYFDYWGQGTTLTVSS
VL: not shown
B3: 2E9 (antibody, V domains shown)
VH: EVKLLESGGGLVQPGGSLKLSCAASGFDFSRYWMNWVRQAPGKGLEWIGEINPHSSTINYAPSLKDKFIISRDNAKNTLYLQMSKVRSEDTALYYCGRGDYVDYWGLGTTLTVSS
VL: DIVMSQSPSSLAVSVGEKVTMSCKSSQSLLYSRNQKNYLAWYQQKPGQSPKLLIYWASTRESGVPDRFTGSGSGTDFTLTISSVKADDLAVYYCQQYYSYPRTFGGGTKLEIK

Assays:
[1] = target: alpha-synuclein physiologic tetramer (human, UniProt P37840); test: SPR
[2] = target: alpha-synuclein sonicated fibrils (human, UniProt P37840); test: SPR
alpha-synuclein oligomer = alpha-synuclein oligomer (human, UniProt P37840); test: SPR
alpha-synuclein monomer = alpha-synuclein monomer (human, UniProt P37840); test: SPR
gamma-synuclein monomer = gamma-synuclein monomer (human, UniProt O76070); test: ELISA
Chain of gamma-synuclein monomer (O76070 whole entry): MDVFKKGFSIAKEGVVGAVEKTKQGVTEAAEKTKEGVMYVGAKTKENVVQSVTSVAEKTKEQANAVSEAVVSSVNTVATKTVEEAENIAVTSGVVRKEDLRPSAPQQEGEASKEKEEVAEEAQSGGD

beta-synuclein monomer = beta-synuclein monomer (human, UniProt Q16143); test: ELISA
Chain of beta-synuclein monomer (Q16143 whole entry): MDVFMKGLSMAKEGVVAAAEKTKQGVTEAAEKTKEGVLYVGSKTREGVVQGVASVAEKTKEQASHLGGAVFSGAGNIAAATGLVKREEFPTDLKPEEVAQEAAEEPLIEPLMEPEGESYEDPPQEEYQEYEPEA

Row | binding result [1] | Kd [2] | Kd (alpha-synuclein oligomer) | binding result (alpha-synuclein monomer) | binding result (gamma-synuclein monomer) | binding result (beta-synuclein monomer) | Binder
1 | no binding | 20 nM | 1610 nM | no binding | – | – | B1
2 | no binding | 8 nM | 985 nM | no binding | – | – | B2
3 | no binding | 9 nM | 431 nM | no binding | no binding | no binding | B3
